The values below come from PMC11793827 (PLOS Pathogens, 2025).

Test [1] addresses T1, Omicron BA.5 SARS-CoV-2 RBD (SARS-CoV-2, Omicron BA.5 (RBD same as …, strain)).
T1 construct: also called Omicron BA.5 RBD; BA.5 RBD
Put plainly: ELISA. Conditions: both partners purified.

Test [2] has as its target T2, Omicron BA.1 SARS-CoV-2 RBD (SARS-CoV-2, Omicron BA.1, Q493R).
T2 construct: also called Omicron BA.1 RBD; BA.1 RBD
Kind of test: ELISA. Particulars: both partners purified. (In an ELISA, binding on a coated surface is turned into a signal by an enzyme label.)

B1: BP3D5 (VHH)
VHH: EVQLQASGGGFVQPGGSLRLSCAASGRAFRIYTMGWFRQAPGKEREFVSAISAGDGAASYYADSVKGRFTISRDNSKNTVYLQMNSLRAEDTATYYCAQYWQSINPIYWGQGTQVTVSS
notes: also called HCAb BP3D5
For B1, the results for the dissociation constant Kd in test [1] and in test [2] were 1.83 nM and 1.12 nM, respectively.
